The results in this text go back to US8748572B2, “RNase a peptides, fragments and uses thereof” (priority 2006, dated 2014).

One data set concerns yeast tRNA. Description: ribonuclease assay with yeast tRNA substrate. Type of data set: biochemical. Particulars: for Optimum pH for RNase activity: 50 pmol rRNase, 40 mM sodium phosphate buffers pH 5.5 to 8.0; for Km / kcat: 40 mM sodium phosphate buffer. The procedure:
(§1) FIGS. 4 A-D are graphs showing the ribonucleolytic activity of recombinant leukocyte RNases. (A) is a graph showing the optimum pH for RNase activity. Enzymatic activity was determined with 50 pmol rRNase A-1 (open squares) and rRNase A-2 (closed circles) that was incubated with 250 μg/ml yeast tRNA in 40 mM sodium phosphate buffer at the pHs indicated. Measurements of A260 per time were converted to pmol/s as described in […] and Methods. (B) is a graph showing the initial rates for RNase activity. Enzymatic activity was determined as described in (A) with 40 mM sodium phosphate buffer, pH 7.0. (C) is a graph showing the substrate preference for RNase activity. 50 pmol rRNase A-1 (left panel) and rRNase A-2 (right panel) proteins were incubated with 250 μg/ml of poly U (open squares), poly C (closed circles), poly A (open diamonds), poly G (open triangles) and poly I (open circles) in 40 mM sodium phosphate buffers, pH 7.0. A260 was measured after precipitation of undigested RNA at each of the time points indicated. (D) is two panels of graphs showing interaction of RNase with human placental RNase inhibitor (hPR1). RNase activity was measured with […] of bovine pancreatic RNase (left) or […] rRNase A-1 and rRNase A-2 (right) with 250 μg/ml of yeast tRNA as substrate with (+) or without (−) 200 U human placental RNase inhibitor (hPR1) in 40 mM sodium phosphate buffer, pH 7.0. The hPR1 was added to the RNases in buffer 5 min prior to initiation of RNase assay by addition of substrate. *p<0.01.
Next, the enzymatic activity of the two recombinant leukocyte RNases was characterized. Optimum pH was determined as 7.0 with 50 pmol rRNase A-1 or A-2, with 200 μg yeast tRNA substrate in 40 mM sodium phosphate buffers ranging from pH 5.5 to 8.0, as shown in FIG. 4A. […] Enzymatic activity was measured using 10 pmol rRNase A-1 or rRNase in 40 mM sodium phosphate buffer, pH 7.0. Conversion from A260 to pmol ribonucleotide product was carried out as described in reference 29 and in the Methods.
(§2) The ribonuclease (RNase) assay with yeast tRNA substrate has been described in detail elsewhere. In this study, 10 μL of a 20 mg/ml solution of yeast tRNA, polyuridylic acid (poly U), polyadenylic acid (poly A), polycytidylic acid (poly C), polyguanylic acid (poly G), or polyinosinic acid (poly I) (Sigma-Aldrich) were added to 800 μl of 40 mM sodium phosphate buffer, pH 7.0 containing recombinant FLAG-tagged chicken RNase protein. In experiments in which the pH optimum was to be determined, 40 mM sodium phosphate buffers of pH 5.0, 5.5, 6.0, 6.5, […] or 8.0 were used instead of the buffer of pH 7.0. In some experiments, 200 U human placental RNase inhibitor (Boehringer Mannheim) were added prior to the addition of the tRNA substrate. Conversion of units A260 per unit time to pmol/s were performed as described in [29], based on the following conversion factors: the average molecular weight of a molecule of tRNA is 28,100 (75-90 ribonucleotides/tRNA molecule×341 MW per ribonucleotide) with an A260 of 1.0 corresponding to 40 μg of RNA.

Data set [1] has as its system poly U, poly C, poly A, poly G, poly I, double-stranded RNA. Description: ribonuclease assay, substrate preference (polyribonucleotides). Particulars: 50 pmol rRNase, pH 7.0; for hydrolysis of poly U: 250 μg/ml poly U. Type of data set: biochemical. The protocol:
as §1, §2

B1: rRNase A-2: recombinant carboxy-terminal FLAG-tagged Gallus gallus leukocyte RNase A-2, SEQ ID NO: 4, GenBank DQ395276 (protein, listed as Gallus gallus)
chain: VPTYQDFLYKHMDFPKTSFPSNAAYCNVMMVRRGMTAHGRCKSFNTFVHTDPRNLNTLCINQPDQALRTTRRHFRITDCKLIRSHPTCRYSGNQFNRRVRVGCRGGLPVHLDGTSP
modifications: C-terminal FLAG tag
B1: the “Optimum pH for RNase activity” value in the data set on yeast tRNA is 7.0. For the same molecule, in the data set with yeast tRNA (pH 7.0), the Michaelis-Menten constant (Km) was 0.5 µM; the turnover number (kcat) came to 0.056 s⁻¹; the “Km, times lower than that for RNase A-1” value is 34 times; the “kcat, times lower than that for RNase A-1” value was 50 times. Also, in data set [1], the “hydrolysis of poly U” value is “hydrolyzed poly U RNA, at initial rates that were roughly equivalent to one another”. For the same molecule, the “cleavage of poly C and poly A” value in data set [1] (250 μg/ml substrate) is “cleaved poly C and poly A, although at initial rates that were lower than those observed for poly U”.

B2: rRNase A-1: recombinant carboxy-terminal FLAG-tagged Gallus gallus leukocyte RNase A-1, SEQ ID NO: 2, GenBank DQ395275 (protein, listed as Gallus gallus)
chain: VPTYQDFLRTHVDFPKTSFPNIAAYCNVMMVRRGINVHGRCKSLNTFVHTDPRNLNTLCINQPNRALRTTQQQLPVTDCKLIRSHPTCSYTGNQFNHRVRVGCWGGLPVHLDGTFP
modifications: C-terminal FLAG tag
Take B2: the “Optimum pH for RNase activity” value in the data set on yeast tRNA is listed as 7.0. For the same molecule, in the data set on yeast tRNA (pH 7.0), the Km stood at 17.2 µM and the kcat was 2.61 s⁻¹. Moreover, the “hydrolysis of poly U” value in data set [1] is “hydrolyzed poly U RNA, at initial rates that were roughly equivalent to one another”. For the same molecule, in data set [1] (250 μg/ml substrate), the “polyribonucleotides other than poly U as substrates” value is recorded as “poor substrates”.

For orientation: Km means the substrate concentration at which the rate is half of its maximum. In general, kcat refers to the maximal rate divided by the concentration of active sites.
